Here are results for one substance from patent US20250340661A1, “ANTI CD40 ANTIBODY, ANTIGEN BINDING FRAGMENT AND MEDICAL USE THEREOF” (Jiangsu Hengrui Pharmaceuticals Co., Ltd., priority 2021, published 2025).

The test system of series [1] is human CD40 transgenic mice. Description: Mouse skin graft rejection model. The series is classed as in vivo. From the text:
Male Balb/c mice, 6 weeks old, were purchased from the Laboratory Animal Management Department, Shanghai Institute of Planned Parenthood Research. Housing environment: SPF; certification number: 20180006023393.
On day −2 of the experiment, the mice were intraperitoneally injected with tacrolimus FK506 or CD40 antagonistic antibodies. On day 0 of the experiment, donor Balb/c mice and C57BL6/J mice were anesthetized with 4% chloral hydrate. The tails of the donor mice were removed, and full circles of skin, 1 cm in length, were isolated from the tails. The hair on the acceptor mice's back was removed, and an incision was made along the skin layer. An equal area of skin was removed while preserving the back fat and connective tissue. The donor skin was placed on the acceptor mice's incision site, and the incision was closed with glue. The mice were then placed back in cages to recover.
The mice were dosed according to the administration regimens in Table 17. After 7 days of recovery, the mouse skin survival was observed daily and rejection scores were recorded.

Series [2] in a line: PK assay in human CD40 transgenic mice. The series is classed as in vivo, mouse. As to conditions: hCD40 transgenic mice, 10 mg/kg intraperitoneal, plasma. From the text:
The plate was washed three times with wash buffer.

Series [3] addresses T1, CD40 (Homo sapiens, UniProt P25942). Briefly: B cell activation assay system (human PBMCs, CD40L stimulation). The series is classed as cell-based. The arrangement: endogenous in cells; host or cells: human PBMCs (CD19+ B cells read out). As to conditions: CD40L-his + anti-His overnight. On the procedure:
CD40 is highly expressed in B cells, and CD40L, upon binding to CD40, can induce B cell activation and up-regulate the expression of a series of activation markers. CD40 antagonistic antibodies block the binding of CD40L to CD40, thereby eliminating the immune activation process of B cells.
Human PBMCs were plated at 2E5/well, 50 μL/well into a 96-well cell culture plate (the medium was RPMI-1640, 10% FBS, 1% penicillin-streptomycin). Serially diluted test antibodies were added at 50 μL/well, and the cells were co-incubated at 37° C. in 5% CO2 for 0.5 h. CD40L-his and an anti-His antibody were added to each well for overnight stimulation. The following day, the plate was centrifuged, the supernatant was removed, and the cells were washed twice with FACS buffer and stained at room temperature for 15 min with 100 μL of Fixable viability dye EF780 (Invitrogen, 65086514) diluted at 1:1000. The cells were washed twice and then blocked at room temperature for 10 min with 100 μL of human Fc blocker (BD, 564220) diluted at 1:200. After centrifugation, the cells were incubated at 4° C. for 0.5 h with flow cytometry antibodies (PerCP/Cyanine5.5 anti-human CD19 (Biolegend, 302230), and APC anti-human CD69 (Biolegend, 310910)) diluted at 1:200. After centrifugation, the supernatant was removed, the cells were washed twice with FACS buffer and then resuspended in 200 μL of PBS, and the fluorescence intensity on the cell surface was measured by flow cytometry (BD FACS Celesta).
With reference to the method in Example 10, the inhibitory activity of the anti-CD40 antibodies 2F12-L4H2-AAYTE and 9E6-L4H2-AAYTE, which carry the AAYTE mutation in the Fc, in the B cell activation assay system was measured.

For series [4], the target named is T1, CD40. Briefly: DC cell activation assay system (monocyte-derived DCs, CD40L stimulation). The arrangement: endogenous in cells; host or cells: human PBMCs (CD19+ B cells read out). It is filed as cell-based. From the text: CD40 is highly expressed on dendritic cells (DCs), and CD40L, upon binding to CD40, can induce DC activation, up-regulate the expression of multiple activation markers on the DC Cell surface, and promote the secretion of multiple inflammatory factors from DCs, further amplifying immune responses. CD40 antagonistic antibodies block the binding of CD40L to CD40, thereby eliminating the immune activation process of DC cells.
Monocytes were sorted and enriched from fresh primary human peripheral blood PBMCs using the EsaySep™ human CD14 sorting kit (Stemcell, 19359), and differentiated for 6 days with RPMI-1640 medium (10% FBS, 1% penicillin-streptomycin), 50 ng/mL IL-4 (PeproTech, 200-04) and 50 ng/mL GM-CSF (PeproTech, 300-03). On day 7, the differentiated DC cells were plated at 1E5/well into a 96-well cell culture plate. Serially diluted test antibodies were added to the wells, and the cells were co-incubated at 37° C. in 5% CO2 for 0.5 h. CD40L-his and an anti-His antibody were then added to each well at final concentrations. After 48 h of culture, the level of DC cell activation was measured by flow cytometry: after centrifugation, the supernatant was removed, and the cells were washed twice with FACS buffer (PBS+2% FBS) and stained at room temperature for 15 min with 100 μL of Fixable viability dye EF780 (Invitrogen, 65086514) diluted at 1:1000. The cells were washed twice and then blocked at room temperature for 10 min with 100 μL of human Fc blocker (BD, 564220) diluted at 1:200. After centrifugation, the cells were incubated at 4° C. for 0.5 h with flow cytometry antibodies (Alexa Fluor®700 anti-human CD11c (Biolegend, 337220), Brilliant Violet 421™ anti-human CD80 (Biolegend, 305221), and APC anti-human CD86 (Biolegend, 305412)) diluted at 1:200. After centrifugation, the supernatant was removed, the cells were washed twice with FACS buffer and then resuspended in 200 μL of PBS, and the fluorescence intensity on the cell surface was measured by flow cytometry (BD FACS Celesta).
In addition, the level of cytokine secretion in the supernatant was measured after 24 h (TNFα, Cisbio, 62[…]) and 48 h (IL-12/23 p40, Novus, VAL121) of culture. According to the results shown in Table 14 and FIGS. 3A to 3D, 9E6-L4H2 and 2F12-L4H2 have similar DC cell inhibition activity to the control antibody CFZ533.
With reference to the method in Example 11, the inhibitory activity of the anti-CD40 antibodies 2F12-L4H2-AAYTE and 9E6-L4H2-AAYTE, which carry the AAYTE mutation in the Fc, in the DC cell activation assay system was measured.

In general, Cmax refers to the maximum level reached in the sampled fluid or tissue.

T1 sequence (P25942 21-277): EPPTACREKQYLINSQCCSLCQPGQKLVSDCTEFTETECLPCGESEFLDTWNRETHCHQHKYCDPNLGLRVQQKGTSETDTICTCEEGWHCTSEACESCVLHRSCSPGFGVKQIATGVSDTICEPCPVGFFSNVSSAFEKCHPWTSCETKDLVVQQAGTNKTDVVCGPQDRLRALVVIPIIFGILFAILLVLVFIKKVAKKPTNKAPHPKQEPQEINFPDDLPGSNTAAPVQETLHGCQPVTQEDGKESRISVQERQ

On to “CFZ533: anti-CD40 antagonistic antibody (iscalimab), positive control; variable regions from U.S. Pat. No. 8,277,810B [reference compound]”, for which the Skin graft score in series [1] (8 days, 3 mpk, scale 3 (no rejection) to 0) turned out to be 2.7; in series [1] (8 days, 10 mpk, scale 3 to 0) it was 2.9; in series [1] (10 days, 3 mpk, scale 3 to 0) it was 2.1; in series [1] (10 days, 10 mpk, scale 3 to 0) it was 2.1; in series [1] (15 days, 3 mpk, scale 3 to 0) it was 0; in series [1] (15 days, 10 mpk, scale 3 to 0), 0. The Skin graft score in series [1] (20 days, 3 mpk, scale 3 to 0) was 0; in series [1] (20 days, 10 mpk, scale 3 to 0) it was 0. Further, the “Skin graft survival rate (%)” value in series [1] (Day 15, 3 mpk ip) came out at 0%; in series [1] (Day 15, 10 mpk ip), 0%. The “AUC(0-d 14)” value in series [2] is 12655 (h)*(mg/L). In series [2], the Cmax was 75.95 µg/mL. In series [2], this substance returned a T½ of 214.8 h. Further, the “CD19+CD69+ % Maximum inhibition rate” value with CD40 [3] is given as 95%. For the same substance, the “CD19+CD69+ MFI Maximum inhibition rate” value with CD40 [3] was found to be 110%. For the same substance, the IC50 in the series with CD40 [3] (read-out: CD19+CD69+ % IC50) was 0.14 nM; in the series with CD40 [3] (read-out: CD19+CD69+ MFI IC50), 0.07 nM; with CD40 [4] (48 h culture, read-out: IC50 in DC cell activation assay system, CD80 MFI), 1.19 nM; in the series with CD40 [4] (48 h culture, read-out: IC50 in DC cell activation assay system, CD86 MFI) it was 1.93 nM; with CD40 [4] (supernatant, 24 h, read-out: IC50 in DC cell activation assay system, TNFα), 0.35 nM; in the series with CD40 [4] (supernatant, 48 h, read-out: IC50 in DC cell activation assay system, IL-12/23 p40) it was 0.68 nM.
